Reference: IntAct's records for PubMed 20924357

Key:
[1] = biological target: bglg_ecoli bglG (UniProt P11989)
[2] = biological target: bglg_ecoli bglG (UniProt P11989); remark: listed apart in the source
[3] = biological target: bglg_ecoli bglG (UniProt P11989); remark: listed apart in the source

Sequence of bglg_ecoli bglG (P11989 whole entry): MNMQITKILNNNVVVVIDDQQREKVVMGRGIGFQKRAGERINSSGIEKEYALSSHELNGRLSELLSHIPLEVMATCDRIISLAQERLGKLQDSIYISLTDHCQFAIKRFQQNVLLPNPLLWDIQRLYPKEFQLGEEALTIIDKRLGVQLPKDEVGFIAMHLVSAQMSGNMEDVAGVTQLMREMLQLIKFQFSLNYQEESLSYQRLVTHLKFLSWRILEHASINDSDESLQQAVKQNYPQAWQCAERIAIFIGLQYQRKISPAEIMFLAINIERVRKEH

effect of a mutation on the interaction [1]	effect of a mutation on the interaction [2]	effect of a mutation on the interaction [3]	Substance
increasing interaction			Phosphocarrier protein HPr (Escherichia coli (strain K12)), P0AA04 H15A
	disrupting interaction	decreasing interaction	Phosphoenolpyruvate-protein phosphotransferase (Escherichia coli (strain K12)), P08839 H189A
